Test results from the supplement of paper PMC12042874.
± gives the uncertainty stated by the source.

Assay: amyloid nucleation score (Sup35N fusion, yeast selection) (log enrichment); library NNK3; higher = more nucleation; inactive = no reads after selection
In short: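 For the nucleation score, DiMSum gave the log enrichment of output over input reads, centred on the mode score of non-aggregating sequences. Psi-negative yeast expressing Sup35N fused to peptides of 20 random codons were induced with 100 μM copper sulfate for 24 hours and grown 7 days at 30°C on medium lacking adenine and uracil. Input and output plasmid inserts were Illumina-sequenced, and sequences with under 100 input reads were excluded.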

Substance: CGYKEVGVPASRRMNS
- amyloid nucleation score: inactive

Substance: CHHLRWDNCVRREELDFTCV
- amyloid nucleation score: inactive

Substance: CHKVLWSSVKTVDFMLSNMG
- amyloid nucleation score: inactive

Substance: CHRRLML
- amyloid nucleation score: inactive

Substance: CHVLWGCCIRSQVCCSAYNV
- amyloid nucleation score: 2.06 ± 0.073

Substance: CIFYDSLVDWDHHYSHKGWH
- amyloid nucleation score: inactive

Substance: CIGGWDIKGKQ
- amyloid nucleation score: inactive

Substance: CIRVKHFCISHEDKR
- amyloid nucleation score: inactive

Substance: CIRVTMSNMMVESWVYGDKP
- amyloid nucleation score: 0.586 ± 0.15

Substance: CIVYSFSRGFTSNGGEGYRW
- amyloid nucleation score: 0.67 ± 0.22

Substance: CIYWLEF
- amyloid nucleation score: 1.57 ± 0.084

Substance: CKDSDSTIPRMLLLRLKTEL
- amyloid nucleation score: inactive

Substance: CKIGYPTYNVGVIVSLVVRM
- amyloid nucleation score: 1.61 ± 0.066

Substance: CKVHECHVPAG
- amyloid nucleation score: inactive

Substance: CKVYGKSLVMAYN
- amyloid nucleation score: inactive

Substance: CLCSMHLRWRSSNWRGYEHF
- amyloid nucleation score: 0.474 ± 0.31

Substance: CLFRYSEYSVGKLMGYCDCG
- amyloid nucleation score: inactive

Substance: CLFSHYLV
- amyloid nucleation score: inactive

Substance: CLGADCVAHFSYFHA
- amyloid nucleation score: inactive

Substance: CLKVSTKCFW
- amyloid nucleation score: 0.097 ± 0.52

Substance: CLLCGSRHFRHRLGFVSYRI
- amyloid nucleation score: inactive

Substance: CLLYSYCCPRKIVN
- amyloid nucleation score: inactive

Substance: CLPVARGQMR
- amyloid nucleation score: inactive

Substance: CLQSARYKIFCFFYFDVLSH
- amyloid nucleation score: inactive

Substance: CLSLDQWWLHRYDHLVLGET
- amyloid nucleation score: inactive

Substance: CLSLKNERHQVFMSRIGNRA
- amyloid nucleation score: inactive

Substance: CLVTGWISSILNWFLYWNWE
- amyloid nucleation score: inactive

Substance: CLVWG
- amyloid nucleation score: inactive

Substance: CLWFISRQFDLYHRVMGNRS
- amyloid nucleation score: inactive

Substance: CLYVSLS
- amyloid nucleation score: inactive

Substance: CMDKFWCVVYA
- amyloid nucleation score: -0.416 ± 1.5

Substance: CMFNGGDWNHNVRELGRQSS
- amyloid nucleation score: inactive

Substance: CMFRLMIPSIKTNAISIALC
- amyloid nucleation score: 0.068 ± 0.9

Substance: CMHGRGMWMNIACAFSCRQF
- amyloid nucleation score: 0.063 ± 0.69

Substance: CMIFGVSLAYVCGCSLYGVG
- amyloid nucleation score: inactive

Substance: CMLCKPWSSQVNSY
- amyloid nucleation score: inactive

Substance: CMLDKSAIIMTRMECIVLSY
- amyloid nucleation score: inactive

Substance: CMMWNRGFT
- amyloid nucleation score: inactive

Substance: CMRGWNSRVE
- amyloid nucleation score: inactive

Substance: CMVLRYVTVVSGMSQAKRMY
- amyloid nucleation score: inactive

Substance: CNCVAKDKVMLHVSRRRADF
- amyloid nucleation score: 0.201 ± 0.72

Substance: CNDGSHCLGYY
- amyloid nucleation score: inactive

Substance: CNDLVYFMMFVLYLVTRWET
- amyloid nucleation score: inactive

Substance: CNGFFCGMCCYTKRKMKYAI
- amyloid nucleation score: inactive

Substance: CNISSFNT
- amyloid nucleation score: inactive

Substance: CNKGSNTYVVDYAVGNGH
- amyloid nucleation score: inactive

Substance: CNLALFTRGWGEYMIVSCCK
- amyloid nucleation score: inactive

Substance: CNLRMCNGA
- amyloid nucleation score: inactive

Substance: CNMRVERLMSLFSL
- amyloid nucleation score: inactive

Substance: CNNLFFSWLKFMLIGIMGH
- amyloid nucleation score: inactive

Substance: CNPLFTYNKPSVDKSV
- amyloid nucleation score: inactive

Substance: CNSYTYVEGSNYNGSSQGLD
- amyloid nucleation score: inactive

Substance: CNVASSNFRCHYSQMRRFCE
- amyloid nucleation score: inactive

Substance: CNVFWVPTVRLIFKMYKVSR
- amyloid nucleation score: 0.417 ± 0.36

Substance: CPAYMYCTGMSVNTCPGKGG
- amyloid nucleation score: inactive

Substance: CPESLWNKSYVYAGALTFLR
- amyloid nucleation score: inactive

Substance: CPFPRLSICVACNEYDNQLS
- amyloid nucleation score: inactive

Substance: CPTCWRYVNIRYSI
- amyloid nucleation score: inactive

Substance: CQHSRRLKGAAYKSCQMYRR
- amyloid nucleation score: inactive

Substance: CQWANY
- amyloid nucleation score: -0.508 ± 1

Substance: CQYPCVMLCQC
- amyloid nucleation score: 0.504 ± 0.19

Substance: CRGLLYISVNYNMILFQHTR
- amyloid nucleation score: inactive

Substance: CRRNTVFMNRVYNNGLFEEC
- amyloid nucleation score: inactive

Substance: CRSQMHWLYSQRQIMPVLRS
- amyloid nucleation score: inactive

Substance: CRVSGMDICLWSMMCDSVGS
- amyloid nucleation score: inactive

Substance: CRYYNSC
- amyloid nucleation score: inactive

Substance: CSCWFFLVHNFNNIYRILWK
- amyloid nucleation score: inactive

Substance: CSFSISSSGVLWRGKERPIG
- amyloid nucleation score: 1.05 ± 0.18

Substance: CSGFRVNSSTVIGYLSILLK
- amyloid nucleation score: inactive

Substance: CSGGGGKRGLLSTLTEPMRR
- amyloid nucleation score: inactive

Substance: CSGISSNGGLLTLGCCFCRG
- amyloid nucleation score: 2.96 ± 0.076

Substance: CSILACSA
- amyloid nucleation score: inactive

Substance: CSIYNCMSHHKRVTG
- amyloid nucleation score: 1.2 ± 0.15

Substance: CSLRPNSERTSVIYNALHVN
- amyloid nucleation score: inactive

Substance: CSMPWLRSSTGGGVLLIEKS
- amyloid nucleation score: inactive

Substance: CSPKPNKKAAMYKSAYNPGM
- amyloid nucleation score: 0.629 ± 0.17

Substance: CSRIRLMGFDWLAPIPHA
- amyloid nucleation score: inactive

Substance: CSTYSRLRYIAYCWVVRP
- amyloid nucleation score: inactive

Substance: CSVFPQVRLCPRSSANQELD
- amyloid nucleation score: inactive

Substance: CSVLDKEVFGGTSQDSDSYL
- amyloid nucleation score: inactive

Substance: CSWRNRYCMLRRELFGAWRV
- amyloid nucleation score: inactive

Substance: CSYRCYSLGCNMQIV
- amyloid nucleation score: inactive

Substance: CTGYDCVGMGADFCARMWHC
- amyloid nucleation score: inactive

Substance: CTKKM
- amyloid nucleation score: inactive

Substance: CTLIAKHNQA
- amyloid nucleation score: inactive

Substance: CVADHLSCISTRGNCCYMSG
- amyloid nucleation score: 0.473 ± 0.26

Substance: CVAYSRTEVRFYRYEHLWV
- amyloid nucleation score: 1.18 ± 0.12

Substance: CVDQT
- amyloid nucleation score: inactive

Substance: CVFRYLVHHERMSYILNAGC
- amyloid nucleation score: inactive

Substance: CVFYCSKLWIRYNNVMMISS
- amyloid nucleation score: 0.831 ± 0.1

Substance: CVGHVRSYYGMQIPKGLKLS
- amyloid nucleation score: inactive

Substance: CVGVF
- amyloid nucleation score: inactive

Substance: CVLSVEYGHNQEDAITMRCE
- amyloid nucleation score: inactive

Substance: CVPGYGYRLNYSL
- amyloid nucleation score: inactive

Substance: CVPNWVVCRLSIYKF
- amyloid nucleation score: inactive

Substance: CVSGDCVMIMFYLFSPVAVV
- amyloid nucleation score: inactive

Substance: CVSPDCMLMGAHDYGVERWL
- amyloid nucleation score: inactive

Substance: CVTSVVFRFRQHGYTRKGMA
- amyloid nucleation score: 1.27 ± 0.15

Substance: CVVNGDLVASLKSLFLGWCL
- amyloid nucleation score: inactive

Substance: CVYGPRFNF
- amyloid nucleation score: 1.94 ± 0.067

Substance: CWAYVMRT
- amyloid nucleation score: inactive

Substance: CWEFYVVLYRLLGICKIRVL
- amyloid nucleation score: inactive

Substance: CWFRLYQRNARVVDNFVNHG
- amyloid nucleation score: inactive

Substance: CWQFK
- amyloid nucleation score: 0.22 ± 0.9

Substance: CWRVCGARYLWA
- amyloid nucleation score: inactive

Substance: CWTTINVSGCPNVGGGTVLQ
- amyloid nucleation score: 0.9 ± 0.17

Substance: CYCLLGVRLHVWIS
- amyloid nucleation score: inactive

Substance: CYGFSK
- amyloid nucleation score: inactive

Substance: CYLCVAAGWSMATPLRGGLA
- amyloid nucleation score: inactive

Substance: CYPTSFGCFFVFFWYYVYCG
- amyloid nucleation score: inactive

Substance: CYRCVCFLLCGFVQSDCYDD
- amyloid nucleation score: inactive

Substance: CYVLVMKIPSHFKGTFMWHI
- amyloid nucleation score: inactive

Substance: CYVNYWESDMLRTAVPNCTF
- amyloid nucleation score: inactive

Substance: DAFRSSYWIICMTEAHLYKF
- amyloid nucleation score: inactive

Substance: DAGYDVVLGSMAMVSVGTCL
- amyloid nucleation score: inactive

Substance: DATRSCLWMYAIVYNACIGH
- amyloid nucleation score: inactive

Substance: DAYNVYMMSSRPAHYQGHYL
- amyloid nucleation score: inactive

Substance: DCAYMCNVYFLVLGSAKLFI
- amyloid nucleation score: 1.27 ± 0.17

Substance: DCFMGPLVSNCGFYECRLSV
- amyloid nucleation score: inactive

Substance: DCHLPKIKYFAITYFCFFRR
- amyloid nucleation score: inactive

Substance: DCRAIVLRL
- amyloid nucleation score: inactive

Substance: DCVNWTWHTTDNLVVTYSYN
- amyloid nucleation score: inactive

Substance: DDDRGGSTMTATHRRRMWHL
- amyloid nucleation score: inactive

Substance: DDECELNMRYNGREYQGTDG
- amyloid nucleation score: inactive

Substance: DDHLGKVGSGFRIGICTLQN
- amyloid nucleation score: inactive

Substance: DDLRYRNE
- amyloid nucleation score: inactive

Substance: DDPQVGLNFAQSYALPEYFA
- amyloid nucleation score: inactive

Substance: DDSNCKRKDRVVSVRMMDLT
- amyloid nucleation score: inactive

Substance: DEANRYPRYLYILERLAYRK
- amyloid nucleation score: inactive

Substance: DEFVCLEVDNLCMVCSEKM
- amyloid nucleation score: -0.067 ± 0.73

Substance: DEIPCDVRGLMPTRVSTLNL
- amyloid nucleation score: inactive

Substance: DENVALFFLF
- amyloid nucleation score: inactive

Substance: DFAVGLLVHWHNPHYNTELQ
- amyloid nucleation score: 1.25 ± 0.13

Substance: DFGFYWSSVGHAGLETKLYP
- amyloid nucleation score: inactive

Substance: DFHIKERG
- amyloid nucleation score: inactive

Substance: DFISERHYHRPAGPA
- amyloid nucleation score: inactive

Substance: DFVDARFWQIFGFSNAEQGL
- amyloid nucleation score: inactive

Substance: DFVRVEMNYLDENDGGCYL
- amyloid nucleation score: inactive

Substance: DGKFRSNWSYGVLWMLVFLY
- amyloid nucleation score: inactive

Substance: DGMTMFLSYN
- amyloid nucleation score: -0.208 ± 1.1

Substance: DGSIGRGVDRRLTKSSQPAL
- amyloid nucleation score: inactive

Substance: DGTMANRIVVF
- amyloid nucleation score: inactive

Substance: DGVLSVGSLCNDRFVLEMYG
- amyloid nucleation score: -0.432 ± 1

Substance: DHKFGNMLAFESRLVLYQIK
- amyloid nucleation score: inactive

Substance: DHQLSGGDGVGSMYSTEGKL
- amyloid nucleation score: inactive

Substance: DHVAG
- amyloid nucleation score: inactive

Substance: DIIVKQLPKRYGPTMSIRNM
- amyloid nucleation score: -0.057 ± 0.58

Substance: DILFTSIS
- amyloid nucleation score: 0.257 ± 0.41

Substance: DILGVCLSMNYWVI
- amyloid nucleation score: inactive

Substance: DILIREFDYLTSTHLDDKIR
- amyloid nucleation score: inactive

Substance: DIVGHIKSLMFLVLEDTSSP
- amyloid nucleation score: inactive

Substance: DKDMNEQVS
- amyloid nucleation score: inactive

Substance: DKFLFLCMG
- amyloid nucleation score: inactive

Substance: DKGQRVNSSGRVCNMNMGYW
- amyloid nucleation score: inactive

Substance: DKRNSLGCGLNYGFKADDGW
- amyloid nucleation score: inactive

Substance: DLAINGSAAQTVVLRAERSY
- amyloid nucleation score: inactive

Substance: DLDCGTSDMLCCRLVCC
- amyloid nucleation score: inactive

Substance: DLFKTVPYRWGFRYHIGIYM
- amyloid nucleation score: inactive

Substance: DLGLERLAFS
- amyloid nucleation score: inactive
